Reference: publication PMC7504222

Target: C-X-C motif chemokine receptor 4 (CXCR4) (human (endogenous in primary CD4+ T cells)) (UniProt P61073)
Chain of UniProt P61073 (P61073 whole entry): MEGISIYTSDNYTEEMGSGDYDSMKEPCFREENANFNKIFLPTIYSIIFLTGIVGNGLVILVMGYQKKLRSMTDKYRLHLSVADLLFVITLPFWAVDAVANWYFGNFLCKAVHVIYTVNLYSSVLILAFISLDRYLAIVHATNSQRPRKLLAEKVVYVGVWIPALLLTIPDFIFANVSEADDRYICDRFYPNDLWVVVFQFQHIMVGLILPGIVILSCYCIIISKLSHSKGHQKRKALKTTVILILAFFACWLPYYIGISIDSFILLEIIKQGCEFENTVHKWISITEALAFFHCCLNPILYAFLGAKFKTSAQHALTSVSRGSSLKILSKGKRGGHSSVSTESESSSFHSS

- median fluorescence intensity of MitoTracker Deep Red-labelled mitochondria on CD4+ T cells after 2 h co-culture, with 20 µg/mL blocking SDF-1 Ab; flow cytometry: 21.1
- median fluorescence intensity of MitoTracker Deep Red-labelled mitochondria on CD4+ T cells after 2 h co-culture, without SDF-1 Ab; flow cytometry: 44.8
Substance: stromal cell-derived factor-1 (SDF-1) (from UniProt P48061 22-93) (ligand)
